Patent publication US6699842B1, “Dominant negative deletion mutants of C-jun and their use in the prevention and treatment of cancer” (The United States of America as represented by the …, priority 1994, dated 2004)

What was measured:
AP-1 = assay: CAT assay with stromelysin promoter reporter P750TRCAT (AP-1 dependent) in JB6 P+ Cl 41 cells; assay type: cell-based, mouse; settings: 10 ng/ml, eight hours
Excerpt: The plasmid constructs used in the following examples were as follows: P750TRCAT is a CAT reporter construct containing 750 bp of the rat stromelysin promoter driving the heterogolous gene chloramphenicol acetyl-transferase (CAT). This construct contains an AP-1 binding sequence at position −70 (Matrisian, L. M. et al. (1991) Am. J. Medic. Sci., 302: 157-162, Kerr, L. D. et al. (1988) Science., 242: 1424-1427, McDonnell, S. E. et al. (1990) Mol. Cell. Biol. 105 4284-4293). The mTRE-CAT reporter is a site-directed mutant with 2 point mutations in the AP-1 site (Matrisian, L. M. et al. (1991) Am. J. Medic. Sci., 302: 157-162) and the mPEA3-CAT reporter is a site-directed mutant in which point mutations in each of the PEA3 sites at position −208 to −200 and −191 to −199 of the stromelysin promoter were introduced using a protocol provided with the site-directed mutagenesis kit of Amersham Corp. (Arlington Heights, Ill.) and an oligonucleotide having SEQ ID NO.:1 GCAAGAAGCATTTCTTGG.
In brief, JB6 Cl 41 (P^+) cells transfected for 4-5 hours using a standard calcium phosphate transfection procedure (Sambrook, J. et al. (1989) “Molecular Cloning, A Laboratory Manual” Cold Spring Harbor Laboratory Press, Cold Spring Harbor, N.Y.) with 10 μg of one of three CAT reporter plasmid DNAs, P750TRCAT, mTRE-CAT or mPEA3-CAT and 10 μg of sheared genomic DNA isolated from Cl 41 cells were then changed to medium containing 2% fetal calf serum and twenty-four to forty-two hours later, were treated with either 0.1% of DMSO, 10 ng/ml of TPA or 10 ng/ml EGF for eight hours prior to preparation of total cell extracts. CAT enzyme activity was assayed using a diffusion-based CAT assay according to the protocol provided by the manufacturers (New England Nuclear, Del.). The results are expressed as the rate of accumulation of [^14C]-acetylated product relative to solvent controls (DMSO).
In order to determine whether TPA-induced CAT activity in JB6 P^+ cells is capable of being abolished, TPA induced CAT activity was measured in the presence of the known AP-1 inhibitors retinoic acid (RA) and fluocinolone acetonide (FA). In brief, JB6 P^+ Cl 41 cells were transfected with 10 μg of P750TRCAT and 10 μg of sheared genomic DNA from Cl 41 cells as in Example 1. […] As before, the results are expressed as the rate of accumulation of ^14C-acetylated product relative to solvent controls. […]

c-Jun = assay: immunoprecipitation and densitometry of c-Jun protein in stable JB6 transfectants; assay type: cell-based, mouse; settings: 10 ng/ml, fifteen hours, TAM67 or Neo-only transfectants
Procedure: Three TAM67 clonal transfectants (M4, M3, M6) and one neo-only clonal transfectant (N1) were treated for fifteen hours with either 10 ng/ml TPA (T), 10 ng/ml EGF (E), or 0.1% DMSO (D) prior to metabolic labelling for two hours with 0.2 mCi/ml ^35S -methionine (Amersham, Rockford, Ill.) (Sun, Y. et al. (1993) Mol. Carcinogenesis, 8: 49-57). Cellular lysates were then collected and immunoprecipitations using polyclonal rabbit c-jun antibody (AB-1 antibody, Oncogene Science) were carried out overnite at 4° C. (Sun et al. (1993)). These immunoprecipitates were then analyzed by electrophoresis on 12.5% SDS polyacrylamide gels and these gels are shown in FIG. 4.

B1: epidermal growth factor (protein, UniProt P01133 23-1207, looked up)
Pro-epidermal growth factor: PQHWSCPEGTLAGNGNSTCVGPAPFLIFSHGNSIFRIDTEGTNYEQLVVDAGVSVIMDFHYNEKRIYWVDLERQLLQRVFLNGSRQERVCNIEKNVSGMAINWINEEVIWSNQQEGIITVTDMKGNNSHILLSALKYPANVAVDPVERFIFWSSEVAGSLYRADLDGVGVKALLETSEKITAVSLDVLDKRLFWIQYNREGSNSLICSCDYDGGSVHISKHPTQHNLFAMSLFGDRIFYSTWKMKTIWIANKHTGKDMVRINLHSSFVPLGELKVVHPLAQPKAEDDTWEPEQKLCKLRKGNCSSTVCGQDLQSHLCMCAEGYALSRDRKYCEDVNECAFWNHGCTLGCKNTPGSYYCTCPVGFVLLPDGKRCHQLVSCPRNVSECSHDCVLTSEGPLCFCPEGSVLERDGKTCSGCSSPDNGGCSQLCVPLSPVSWECDCFPGYDLQLDEKSCAASGPQPFLLFANSQDIRHMHFDGTDYGTLLSQQMGMVYALDHDPVENKIYFAHTALKWIERANMDGSQRERLIEEGVDVPEGLAVDWIGRRFYWTDRGKSLIGRSDLNGKRSKIITKENISQPRGIAVHPMAKRLFWTDTGINPRIESSSLQGLGRLVIASSDLIWPSGITIDFLTDKLYWCDAKQSVIEMANLDGSKRRRLTQNDVGHPFAVAVFEDYVWFSDWAMPSVMRVNKRTGKDRVRLQGSMLKPSSLVVVHPLAKPGADPCLYQNGGCEHICKKRLGTAWCSCREGFMKASDGKTCLALDGHQLLAGGEVDLKNQVTPLDILSKTRVSEDNITESQHMLVAEIMVSDQDDCAPVGCSMYARCISEGEDATCQCLKGFAGDGKLCSDIDECEMGVPVCPPASSKCINTEGGYVCRCSEGYQGDGIHCLDIDECQLGEHSCGENASCTNTEGGYTCMCAGRLSEPGLICPDSTPPPHLREDDHHYSVRNSDSECPLSHDGYCLHDGVCMYIEALDKYACNCVVGYIGERCQYRDLKWWELRHAGHGQQQKVIVVAVCVVVLVMLLLLSLWGAHYYRTQKLLSKNPKNPYEESSRDVRSRRPADTEDGMSSCPQPWFVVIKEHQDLKNGGQPVAGEDGQAADGSMQPTSWRQEPQLCGMGTEQGCWIPVSSDKGSCPQVMERSFHMPSYGTQTLEGGVEKPHSLLSANPLWQQRALDPPHQMELTQ
modifications: Pro-epidermal growth factor
notes: tumor promoter, peptide growth factor
increase in AP-1 dependent CAT activity in neo-only transfectants (AP-1; N1-N3 transfectants, P750TRCAT): three to four fold increases | CAT activity relative to uninduced cells, P750TRCAT reporter (AP-1; P750TRCAT-transfected JB6 P+ Cl 41 cells): about 2 fold | CAT activity relative to uninduced cells, mPEA3-CAT reporter (AP-1; mPEA3-CAT-transfected JB6 P+ Cl 41 cells (PEA3 sites mutated)): about 2 fold | inducibility of CAT activity, mTRE-CAT reporter (AP-1; mTRE-CAT-transfected cells (AP-1 binding site mutated)): loss of inducibility | c-Jun protein levels (43 kDa band, densitometric analysis) (c-Jun): no significant differences
